Here are results for one substance from patent US9932404B2.

In this experiment the target is full length human TLR3 (human).

The substance “TLR3.7 (eBiosciences, cat no 14-9039) (antibody)” had a % inhibition of poly(I:C)-induced NF-κB luciferase reporter of 8%.
